Measured values: paper PMC10163345 (2023)
Where no end group is shown, it is not given here.

Biological target: constitutively active truncated His-tagged WT calcineurin (6×His–CNAαWT:CNB) (Homo sapiens (Human),Homo sapiens …, UniProt Q08209,P63098)
Assay: His-tag pulldown + immunoblot

Chain of constitutively active truncated His-tagged WT calcineurin (6×His–CNAαWT:CNB) (Q08209 1-392, one chain of several): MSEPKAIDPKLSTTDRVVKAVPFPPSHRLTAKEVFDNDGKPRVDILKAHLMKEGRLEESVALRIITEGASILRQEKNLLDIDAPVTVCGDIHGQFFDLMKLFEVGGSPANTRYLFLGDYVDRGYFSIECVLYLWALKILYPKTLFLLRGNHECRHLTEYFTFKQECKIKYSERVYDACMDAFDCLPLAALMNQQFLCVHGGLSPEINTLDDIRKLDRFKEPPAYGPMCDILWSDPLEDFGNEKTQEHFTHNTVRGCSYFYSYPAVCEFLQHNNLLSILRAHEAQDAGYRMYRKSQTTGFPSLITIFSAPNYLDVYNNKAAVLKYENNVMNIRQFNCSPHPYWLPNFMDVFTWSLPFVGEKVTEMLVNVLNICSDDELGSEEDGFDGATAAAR

binding result: binds
Binder: KGELVPDVRISTIHDI (protein, also: GST-tagged fusion) [GST-tagged POC5 PxIxIT peptide (POC5 PDVRIS)]
